# Results taken from PMC3549482.
# Where two headings read alike, the source gives them in different places.
# Experiments:
# [1] = molecular target: CD81 on 293-T cells (human (endogenous in HEK 293-T)) (UniProt P60033); experiment: flow cytometry on cells
# [2] = molecular target: CD81 on 293-T cells (human (endogenous in HEK 293-T)) (UniProt P60033); experiment: flow cytometry on cells; remark: listed apart in the source
# UniProt P60033, sequence (P60033 whole entry): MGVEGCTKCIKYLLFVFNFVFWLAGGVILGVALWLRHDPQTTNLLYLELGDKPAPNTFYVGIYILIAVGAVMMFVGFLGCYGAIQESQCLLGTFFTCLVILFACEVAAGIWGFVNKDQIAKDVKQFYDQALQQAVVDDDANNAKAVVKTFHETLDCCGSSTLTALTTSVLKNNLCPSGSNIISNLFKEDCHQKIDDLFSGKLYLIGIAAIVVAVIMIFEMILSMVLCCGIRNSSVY
substance,measurement,setting,value
HCV E2 (strain not told for the experiment on 293-T cells) (natural protein),Mean FI,[1],62
same,Mean FI,[2],79
